From article PMC8893695, “The microprotein Nrs1 rewires the G1/S transcriptional machinery during nitrogen limitation in budding yeast” (PLoS Biology, 2022)
Each block holds one binder with its values, some of them ahead of it.

Experiments:
^FLAGSwi4-Swi6 complex [1] = biological target: T1, ^FLAGSwi4-Swi6 complex (S. cerevisiae, UniProt P25302 1-1093; P09959 1-803); test: co-IP; recombinant ^FLAGSwi4-Swi6-^GSTWhi5 complexes (0.1 ug ^GSTWhi5) incubated with 0.1, 0.2 and 0.5 ug His6-tagged Nrs1 (4, 8 and 20 Nrs1:Whi5 molar ratio), captured on anti-FLAG beads; blots with anti-GST and anti-HIS6; settings: both partners purified
T1 construct: Swi4, S. cerevisiae; Swi6, S. cerevisiae; also called SBF; recombinant SBF; source: baculovirus-infected insect cells, purified (anti-FLAG M2 resin, eluted with FLAG peptide)
T1 sequence (P25302 whole entry, chain 1 of 2): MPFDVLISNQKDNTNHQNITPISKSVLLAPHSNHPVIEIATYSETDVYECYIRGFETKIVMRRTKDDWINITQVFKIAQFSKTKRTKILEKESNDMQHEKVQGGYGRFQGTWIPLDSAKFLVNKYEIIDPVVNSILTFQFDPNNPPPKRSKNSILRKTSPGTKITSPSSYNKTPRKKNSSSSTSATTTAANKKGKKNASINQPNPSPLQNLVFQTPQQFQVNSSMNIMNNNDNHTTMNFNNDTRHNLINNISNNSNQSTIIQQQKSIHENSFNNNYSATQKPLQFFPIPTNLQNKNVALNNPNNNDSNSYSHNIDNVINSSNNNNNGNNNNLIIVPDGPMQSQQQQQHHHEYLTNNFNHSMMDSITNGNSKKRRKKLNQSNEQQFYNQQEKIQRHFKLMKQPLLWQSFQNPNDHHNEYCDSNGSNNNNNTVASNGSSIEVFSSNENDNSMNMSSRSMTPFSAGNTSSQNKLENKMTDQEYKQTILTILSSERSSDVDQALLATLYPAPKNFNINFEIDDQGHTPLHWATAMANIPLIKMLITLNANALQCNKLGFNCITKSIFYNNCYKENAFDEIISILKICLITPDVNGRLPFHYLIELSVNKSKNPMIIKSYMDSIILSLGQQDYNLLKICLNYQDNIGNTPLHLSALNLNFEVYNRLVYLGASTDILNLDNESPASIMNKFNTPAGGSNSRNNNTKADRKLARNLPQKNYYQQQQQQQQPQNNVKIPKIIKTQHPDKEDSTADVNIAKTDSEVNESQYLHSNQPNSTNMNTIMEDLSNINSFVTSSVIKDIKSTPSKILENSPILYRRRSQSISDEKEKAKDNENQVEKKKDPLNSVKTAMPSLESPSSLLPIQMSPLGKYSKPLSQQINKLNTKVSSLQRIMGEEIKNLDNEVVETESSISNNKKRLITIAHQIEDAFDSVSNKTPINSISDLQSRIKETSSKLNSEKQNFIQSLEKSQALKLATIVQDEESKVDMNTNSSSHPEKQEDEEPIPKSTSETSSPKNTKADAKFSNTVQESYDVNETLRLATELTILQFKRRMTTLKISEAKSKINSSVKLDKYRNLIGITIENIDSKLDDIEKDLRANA
T1 sequence (P09959 whole entry, chain 2 of 2): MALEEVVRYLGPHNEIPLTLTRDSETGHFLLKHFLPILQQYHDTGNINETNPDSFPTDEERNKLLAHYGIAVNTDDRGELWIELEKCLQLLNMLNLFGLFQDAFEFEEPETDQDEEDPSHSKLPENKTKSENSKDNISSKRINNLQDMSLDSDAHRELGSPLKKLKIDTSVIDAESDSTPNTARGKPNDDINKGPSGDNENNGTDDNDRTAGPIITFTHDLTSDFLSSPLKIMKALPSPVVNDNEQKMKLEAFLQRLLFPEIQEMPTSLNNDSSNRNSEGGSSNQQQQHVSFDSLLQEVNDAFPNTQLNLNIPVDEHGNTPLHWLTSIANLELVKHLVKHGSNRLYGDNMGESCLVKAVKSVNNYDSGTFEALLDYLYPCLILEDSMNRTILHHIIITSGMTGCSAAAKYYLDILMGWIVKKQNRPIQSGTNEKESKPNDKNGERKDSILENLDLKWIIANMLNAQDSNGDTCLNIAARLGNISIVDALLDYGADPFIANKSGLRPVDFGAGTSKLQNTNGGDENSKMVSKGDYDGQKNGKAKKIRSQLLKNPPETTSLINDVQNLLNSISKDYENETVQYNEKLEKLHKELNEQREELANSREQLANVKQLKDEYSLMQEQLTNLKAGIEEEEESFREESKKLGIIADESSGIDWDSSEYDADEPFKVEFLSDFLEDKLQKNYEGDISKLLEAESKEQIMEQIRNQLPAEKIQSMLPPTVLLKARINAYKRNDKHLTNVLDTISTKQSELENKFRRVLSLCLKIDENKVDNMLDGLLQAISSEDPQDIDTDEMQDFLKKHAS

^FLAGSwi4-Swi6 complex [2] = biological target: T1, ^FLAGSwi4-Swi6 complex; test: pull-down; recombinant ^HAWhi5 or ^GSTNrs1 titrated into preformed ^FLAGSwi4-Swi6-^GSTNrs1 or ^FLAGSwi4-Swi6-^HAWhi5 complexes immobilised on anti-FLAG resin; immunoblot and Coomassie; settings: both partners purified

binding result (^FLAGSwi4-Swi6 complex [1]): binds
B1: ^GSTWhi5 (natural protein, S. cerevisiae, UniProt Q12416 1-295, looked up)
chain: MSLRTPKRSRTSDEQEQEQEQEQVQNPDTHVNNEHQQRPGPTTLLSTPVRLKNGFGTPSPPSPPGITKSITKSRRRPSTTSLQGIFMSPVNKRRVGITAHGRVYDHNDDGHESESEDDENEEENENQKKYDGHVSMPLLPPTTPKSRRSEVFLSPSPRLRSPPTAARRSTGERPIREISHTLRTRLNYALVKLQNGWTDKTLPELETELAPAVQTPPRRYHNRFPDSADAGTSAHTAFLQALGGHPPREEATAVETLMLLSSPTKKQQHRPVPATSAGEPTDETEPESDTEVETS
notes: Whi5, S. cerevisiae; also called recombinant GST-tagged Whi5; source: recombinant

binding result (^FLAGSwi4-Swi6 complex [2]): binds
B2: recombinant ^HAWhi5 (natural protein, S. cerevisiae, UniProt Q12416 1-295, looked up)
chain: B1 chain
notes: Whi5, S. cerevisiae; source: recombinant
